The chains are these.
B1: MORC4 ATPaseCW cassette (aa 29-486) (domain or fragment, human, UniProt Q8TE76 29-486, looked up)
chain: GIRLSTMSPRYLQSNSSSHTRPFSAIAELLDNAVDPDVSARTVFIDVEEVKNKSCLTFTDDGCGMTPHKLHRMLSFGFTDKVIKKSQCPIGVFGNGFKSGSMRLGKDALVFTKNGGTLTVGLLSQTYLECVQAQAVIVPIVPFNQQNKKMIITEDSLPSLEAILNYSIFNRENDLLAQFDAIPGKKGTRVLIWNIRRNKNGKSELDFDTDQYDILVSDFDTEEKMTGGVTSELPETEYSLRAFCGILYMKPRMKIFLRQKKVTTQMIAKSLANVEYDTYKPTFTNKQVRITFGFSCKNSNQFGIMMYHNNRLIKSFEKVGCQVKPTRGEGVGVIGVIECNFLKPAYNKQDFEYTKEYRLTINALAQKLNAYWKEKTSQDNFETSTVARPIPKVPDQTWVQCDECLKWRKLPGKIDPSMLPARWFCYYNSHPKYRRCSVPEEQELTDEDLCLSKAKKQE
notes: ATPase domain and CW domain of human MORC4, aa 29-486, cloned into pDEST15; Homodimer in the crystal with AMPPNP and Mg2+; source: E. coli Rosetta2 (DE3) pLysS or BL21 (DE3) RIL, purified (glutathione agarose, GST tag cleaved, SEC)

For data set [1], the target named is T1, MORC4 CW domain K460A/R462A/R463A (human, UniProt Q8TE76 417-475, K460A | R462A | R463A).
T1 construct: CW-type zinc finger domain of human MORC4, aa 417-475, triple mutant; Uniformly 15N-labelled in the NMR experiment; also called CWKRR; MORC4 CWKRR; source: E. coli, grown and purified as wild-type protein (glutathione agarose, GST tag cleaved)
T1 sequence (looked up): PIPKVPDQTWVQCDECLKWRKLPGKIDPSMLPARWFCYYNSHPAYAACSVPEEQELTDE
Put plainly: NMR titration; 1H,15N HSQC of 15N-labelled CWKRR titrated with H3K4me3 peptide; 20 mM Tris-HCl pH 6.8, 150 mM NaCl, 2 mM DTT. The note with it: both partners purified.

The target in data set [2] is B1. Put plainly: other fluorescence titration; tryptophan fluorescence, 25 °C; ATPaseCW in the presence of 601 DNA (ATPaseCW:601 DNA complex), increasing histone peptide. The note with it: both partners purified.
Data set [3] concerns the target B1. Briefly: other fluorescence titration; tryptophan fluorescence, 25 °C; 0.5-1 µM ATPaseCW or CW in 20 mM Tris pH 6.8, 100 mM NaCl, 2 mM DTT, increasing histone peptide. Particulars: both partners purified.
Data set [4] has as its target T2, MORC4 CW domain (aa 417-475) (human, UniProt Q8TE76 417-475).
T2 construct: CW-type zinc finger domain of human MORC4, aa 417-475, cloned into pGEX 6p-1; Uniformly 15N-labelled in the NMR experiments; unlabelled protein was further purified by size exclusion chromatography; also called WT MORC4 CW domain; source: E. coli Rosetta2 (DE3) pLysS or BL21 (DE3) RIL, purified (glutathione agarose, GST tag cleaved)
T2 sequence (looked up): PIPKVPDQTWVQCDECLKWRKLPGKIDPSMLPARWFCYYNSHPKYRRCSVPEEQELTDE
The description is as above. The note with it: both partners purified.

Data set [5] deals with the molecule itself. Briefly: crystal structure; ATPaseCW (aa 29-486) with AMPPNP and Mg2+, 2.9 Å; crystallised after incubation with H3K4me3 peptide and 2 mM AMPPNP.

Where no end group is shown, it is not given here. Me3 = trimethyl

A word on the Kd: it is the equilibrium constant for the complex coming apart.

As to ARTK(Me3)QTARKSTG (peptide, UniProt P68431 2-13, looked up, N-terminal tail of histone H3, aa 1-12) [histone H3K4me3 peptide (aa 1-12 of H3)], the binding result in data set [1] was “binds”. Moreover, the Kd in data set [2] came out at 40 nM; in data set [3] it was 180 nM; in data set [4], 112 nM.
For B1, the binding result in data set [5] is reported as “binds”.

B2: unmodified histone H3 peptide (aa 1-12 of H3) (peptide, UniProt P68431 2-13, looked up)
peptide: ARTKQTARKSTG
notes: N-terminal tail of histone H3, aa 1-12; also called H3K4; unmodified H3 peptide
In data set [4], B2 displayed a Kd of 2700 nM.

The values are drawn from article PMC7596504, “Molecular mechanism of the MORC4 ATPase activation” (Nature Communications, 2020).
